Series [1] deals with the molecule itself. Briefly: SEC; HPLC, bioZen 1.8 μm SEC-3 column, 30 mM Tris/HCl, 150 mM NaCl, pH 8.0 with 10% acetonitrile, 25 °C; full-length DrBphP and DrF1 variants and mixtures.
The target of series [2] is T1, DrBphPRE (full-length DrBphP E306R/R310E) (Deinococcus radiodurans strain R1, UniProt Q9RZA4 1-755, E306R | R310E, biliverdin IXα covalently linked to a conserved cysteine (holoprotein)).
T1 construct: Deinococcus radiodurans strain R1 bacteriophytochrome DrBphP, full length; source: E. coli BL21 (DE3), purified (Ni-NTA, SEC)
T1 sequence: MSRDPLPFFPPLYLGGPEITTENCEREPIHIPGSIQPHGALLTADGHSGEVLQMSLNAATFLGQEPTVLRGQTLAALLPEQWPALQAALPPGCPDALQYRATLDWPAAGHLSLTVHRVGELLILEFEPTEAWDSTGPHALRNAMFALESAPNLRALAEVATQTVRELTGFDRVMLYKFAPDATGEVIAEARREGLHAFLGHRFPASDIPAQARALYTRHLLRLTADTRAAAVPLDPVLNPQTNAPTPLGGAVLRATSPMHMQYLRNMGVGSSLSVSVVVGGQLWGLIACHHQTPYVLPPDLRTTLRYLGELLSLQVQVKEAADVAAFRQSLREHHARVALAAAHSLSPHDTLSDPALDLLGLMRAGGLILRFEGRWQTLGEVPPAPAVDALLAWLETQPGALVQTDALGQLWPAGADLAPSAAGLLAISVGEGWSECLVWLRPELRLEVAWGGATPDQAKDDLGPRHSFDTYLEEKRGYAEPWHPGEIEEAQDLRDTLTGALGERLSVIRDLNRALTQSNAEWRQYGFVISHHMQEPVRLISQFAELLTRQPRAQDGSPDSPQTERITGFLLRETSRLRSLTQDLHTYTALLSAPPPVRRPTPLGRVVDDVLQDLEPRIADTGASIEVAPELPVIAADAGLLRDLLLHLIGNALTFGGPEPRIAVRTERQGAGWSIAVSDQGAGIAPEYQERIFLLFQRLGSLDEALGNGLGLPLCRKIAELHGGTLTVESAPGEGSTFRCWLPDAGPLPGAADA
The series is described as above. Particulars: both partners purified.

This note sets out measurements from paper PMC12329595, “Engineered bacteriophytochrome heterodimers for research and applications” (The Journal of Biological Chemistry, 2025).

B1: DrBphPER (full-length DrBphP R141E/E148R) (natural protein)
chain: MSRDPLPFFPPLYLGGPEITTENCEREPIHIPGSIQPHGALLTADGHSGEVLQMSLNAATFLGQEPTVLRGQTLAALLPEQWPALQAALPPGCPDALQYRATLDWPAAGHLSLTVHRVGELLILEFEPTEAWDSTGPHALENAMFALRSAPNLRALAEVATQTVRELTGFDRVMLYKFAPDATGEVIAEARREGLHAFLGHRFPASDIPAQARALYTRHLLRLTADTRAAAVPLDPVLNPQTNAPTPLGGAVLRATSPMHMQYLRNMGVGSSLSVSVVVGGQLWGLIACHHQTPYVLPPDLRTTLEYLGRLLSLQVQVKEAADVAAFRQSLREHHARVALAAAHSLSPHDTLSDPALDLLGLMRAGGLILRFEGRWQTLGEVPPAPAVDALLAWLETQPGALVQTDALGQLWPAGADLAPSAAGLLAISVGEGWSECLVWLRPELRLEVAWGGATPDQAKDDLGPRHSFDTYLEEKRGYAEPWHPGEIEEAQDLRDTLTGALGERLSVIRDLNRALTQSNAEWRQYGFVISHHMQEPVRLISQFAELLTRQPRAQDGSPDSPQTERITGFLLRETSRLRSLTQDLHTYTALLSAPPPVRRPTPLGRVVDDVLQDLEPRIADTGASIEVAPELPVIAADAGLLRDLLLHLIGNALTFGGPEPRIAVRTERQGAGWSIAVSDQGAGIAPEYQERIFLLFQRLGSLDEALGNGLGLPLCRKIAELHGGTLTVESAPGEGSTFRCWLPDAGPLPGAADA
modifications: biliverdin IXα covalently linked to a conserved cysteine (holoprotein)
notes: Deinococcus radiodurans strain R1 bacteriophytochrome DrBphP, full length; source: E. coli BL21 (DE3), purified (Ni-NTA, SEC)
Consider B1, for which the binding result in series [1] and in series [2] was “binds” each time.
